Results as given in the supplement of paper PMC10567573.

B1: PKD2L1 (parent)
chain: TLARCAKDILGFAVMFFIVFFAYA

Variants of: B1
Assay: protein stability index of a GFP-peptide fusion (GPS, HEK-293T) (PSI 1-6); higher = more stable
Details: c terminus: a fixed tail appended
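Also: lentivirally expressed fusions sorted by FACS into six bins by GFP to DsRed ratio, PSI derived from sequencing read proportions per bin multiplied by bin number.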

Protein stability index: each site, then its substitutions
M15: H 2.17 | S 1.33 | F 2.54 | R 3.16 | E 2.61 | W 2.5 | G 2.48 | C 2.86 | D 2.89 | Q 3.41 | V 1.88 | A 2.27 | L 1.25 | N 1.32 | K 2.58 | I 3.37 | P 2.62 | Y 1.72
A13: L 2.63 | G 2.06 | D 1.84 | R 3.17 | N 2.11 | I 1.52 | E 2.82 | Q 2.25 | H 2.15 | F 2.92 | Y 2.65 | C 2.25 | P 1.65 | S 1.75 | K 3.14
G11: F 1.22 | A 1.41 | V 1.74 | E 3.51 | K 3.33 | Q 2.35 | H 3.32 | C 2.06 | D 2.28 | L 1.73 | I 2.79 | W 1.06 | R 2.72 | S 3.06 | N 2.4 | Y 2.38 | T 3.47 | P 1.81 | M 1.48
I9: Q 1.84 | N 1.69 | V 2.24 | D 1.64 | C 3.32 | H 2.46 | K 1.22 | T 1.58 | A 2.44 | P 1.93 | G 2.66 | S 2.6 | M 3.48 | E 1.46 | W 2.43 | R 1.74 | L 1.58 | F 3.86 | Y 1.94
V14: T 2.07 | Y 3.2 | C 2.86 | Q 2.46 | F 2.3 | L 3.47 | N 3.15 | H 2.85 | M 1.61 | E 2.48 | I 1.86 | K 3.08 | D 2.59 | G 1.9 | R 2.82 | A 2.06 | S 2.61 | P 1.82
K7: H 3.13 | P 2.84 | M 2.47 | W 2.57 | D 3.17 | Y 3.79 | E 2.36 | V 4.08 | Q 3.71 | R 2.29 | A 2.16 | F 2.78 | G 2.45 | I 2.36 | T 2.83
D8: R 2.06 | I 2.56 | N 1.91 | C 2.56 | S 1.98 | Q 1.51 | V 2.33 | K 2.07 | G 2.75 | M 2.76 | A 2.77 | H 2.66 | E 2.21 | L 2.47 | Y 2.7 | T 3.06 | P 2.25 | F 2.33 | W 2.88
L10: C 2.79 | I 2.42 | R 2.54 | H 1.83 | A 2.38 | P 3.1 | V 2.92 | M 2.61 | T 3.28 | W 2.49 | G 2.03 | Q 3.08 | N 1.82 | F 1.91 | S 1.84 | Y 2.38
A6: P 3.24 | M 2.09 | N 3.44 | V 2.95 | I 2.69 | T 3 | K 3.02 | W 2.75 | L 4.57 | Y 3.06
F12: E 1.44 | N 2.55 | T 1.89 | Y 1.89 | K 2.33 | Q 2.1 | W 3.56 | C 1.87 | A 1.42 | R 2.02 | L 3.16 | P 2.87 | V 2.42 | D 2.24 | I 1.49 | H 1.93 | S 1.89 | G 2.56
